Measurements published in US20110189190A1 (Eli Lilly, published 2011).

Columns and labels:
human hepcidin-25 [1] = molecular target: T1, human hepcidin-25 (human); test: immunoprecipitation from human serum on plate-coated antibody, acid elution, MALDI-TOF mass spectrometry (linear mode)
T1 construct: also called mature human hepcidin; human hepcidin-25 control peptide
T1 peptide: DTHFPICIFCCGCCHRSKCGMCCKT
Source text: (§1) Signal 1 has a mass which is consistent with the expected mass of intact human hepcidin-25 (approximate molecular weight (MW) of 2790 Daltons (Da)). Signal 2 has a mass which is consistent with the expected mass of intact human hepcidin-20 (MW of 2192 Da). […] The mass spectrum was generated on a MALDI-TOF mass spectrometer utilizing a positive ion, linear mode method with a-cyano-4-hydroxycinnamic acid (peptide matrix) as sample matrix essentially as described in Example 6 below.
(§2) Anti-human hepcidin Mabs or Fabs are coated onto separate wells of a 96-well standard ELISA plate in carbonate-bicarbonate (pH 9.4) buffer for 1 hour at room temperature at a concentration of 2 mg/L. The wells are then aspirated and washed 3 times with TBST. Human serum samples containing a known amount of hepcidin-25 (diluted in assay buffer) is added at 100 μl/well for one hour at room temperature. The wells are aspirated and washed 3 times with TBST. Captured hepcidin polypeptides are eluted by adding 40 μL/well of 0.1% formic acid for 5 minutes at room temperature. […] The sample is dried and analyzed with a 4700 TOF-TOF Mass Spectrometer (Applied Biosystems) operated in the linear mode.

human hepcidin-20 [2] = molecular target: T2, human hepcidin-20 (human); test: as above
T2 construct: Endogenous serum form (MW 2192 Da) in the MALDI-TOF experiments
T2 peptide: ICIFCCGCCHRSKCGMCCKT
Source text: as §1, §2

human hepcidin-25 [3] = molecular target: T1, human hepcidin-25; test: SPR, Mab immobilized on CM4 chip
Experimental: The flow cells were then injected with human hepcidin-25. Next, the flow cells were injected with Mab 5E8.

human hepcidin-25 [4] = molecular target: T1, human hepcidin-25; test: SPR, 25 C, Mab captured, hepcidin-25 injected
Experimental: A SPR biosensor such as the BlAcore® T100 may be used to measure binding kinetics and affinity of antibodies such as the antibodies disclosed herein. The BIAcore® system utilizes the optical properties of SPR to detect alteration in protein concentration of interacting molecules within a dextran biosensor matrix. Except as noted, all reagents and materials are purchased from BIAcore® AB (Upsala, Sweden). All measurements are performed at 25° C. Samples are dissolved in HBS-EP buffer (150 mM sodium chloride, 3 mM EDTA, 0.05% (w/v) surfactant P-20, and 10 mM HEPES, pH 7.4). To capture Fabs with human kappa, goat-anti-human kappa is immobilized on flow cells 1 to 4 of a CMS sensor chip at a level of 5000-10000 response units (Rus) using an amine coupling kit. To capture Mabs with mouse IgG1, goat-anti-mouse Fc gamma is immobilized on flow cells 1 to 4 of a CMS sensor chip at a level of 5000-10000 Rus using an amine coupling kit. […] Fabs prepared from E. coli periplasma and Mabs prepared from mammalian cell culture are evaluated using multiple analytical cycles. […] The measurements are obtained at 25° C. and the association and dissociation rates for each cycle are evaluated using a “1:1 with mass transfer” binding model in the BIAevaluation software.

human hepcidin-20 [5] = molecular target: T2, human hepcidin-20; test: MSD sandwich immunoassay: Mab OH4 capture, ruthenium-labelled Mab 3.23 detection; no sandwich signal (assigned to the capture antibody OH4)
Experimental: (§3) Streptavidin-coated and blocked wells of an ELISA plate were incubated for 1 hour with biotinylated Mab OH4 at a concentration of 2 mg/L. Afterward, wells were aspirated and washed three times with TBST (Tris buffered saline containing 10 mmol/L Tris pH 7.40, 150 mmol/L NaCl with 1 mL Tween 20/L). Next, 100 μL of hepcidin standards (varying concentrations of synthesized hepcidin-25 protein in assay buffer consisting of 50 mmol/L HEPES, pH 7.40, 150 mmol/L NaCl, 10 mL/L Triton X-100, 5 mmol/L EDTA, and 5 mmol/L EGTA) were added to the wells to generate a calibration curve. At the same time, serum samples were diluted 1:20 in assay buffer and added to their respective wells, and the ELISA plate was allowed to incubate for 1 hour at room temperature. […] Following aspiration, wells were washed three times with TBST, and the ELISA plate was developed using a MSD reader, which passed a voltage across the wells and recorded ruthenium electrochemiluminescence from each well. MSD software and SigmaPlot version 8.0 were used for fitting of the calibration curves for the ELISA.
(§4) Synthesized hepcidin-25 protein was prepared at a concentration of 10 μg/L and serially diluted to create a standard curve.

human hepcidin-22 [6] = molecular target: T3, human hepcidin-22 (human); test: as above
T3 construct: Endogenous serum form (MW 2436 Da) in the MALDI-TOF experiments
T3 peptide: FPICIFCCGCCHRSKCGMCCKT
Experimental: as §3, §4

human hepcidin-25 [7] = molecular target: T1, human hepcidin-25; test: SPR, 25 C
mouse hepcidin-25 [8] = molecular target: T4, mouse hepcidin-25 (mouse); test: SPR, 25 C, Mab captured
T4 peptide: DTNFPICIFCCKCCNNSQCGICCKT

rat hepcidin-25 [9] = molecular target: T5, rat hepcidin-25 (rat); test: SPR, 25 C, Mab captured
T5 peptide: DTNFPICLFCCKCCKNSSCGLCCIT

human hepcidin-20 [10] = molecular target: T2, human hepcidin-20; test: immunoprecipitation from human serum, MALDI-TOF mass spectrometry
Experimental: Anti-human hepcidin Mabs or Fabs are coated onto separate wells of a 96-well standard ELISA plate in carbonate-bicarbonate (pH 9.4) buffer for 1 hour at room temperature at a concentration of 2 mg/L. The wells are then aspirated and washed 3 times with TBST. Human serum samples containing a known amount of hepcidin-25 (diluted in assay buffer) is added at 100 μl/well for one hour at room temperature. The wells are aspirated and washed 3 times with TBST. Captured hepcidin polypeptides are eluted by adding 40 μL/well of 0.1% formic acid for 5 minutes at room temperature. The eluted samples are collected and concentrated with a C4 ZipTip™ (Millipore, Billerica, Mass.), a 10 μL pipette tip with a bed of chromatography media for purifying and concentrating femtomoles to picomoles of protein or peptides, ideally ranging from 25,000 MW to 100,000 MW. […] The sample is dried and analyzed with a 4700 TOF-TOF Mass Spectrometer (Applied Biosystems) operated in the linear mode.
(§5) Similar experiments were performed using MALDI-TOF spectrometry to determine which hepcidin species in human serum are bound by Mab 5E8. These experiments determined that Mab 5E8 bound only hepcidin-25 in human serum (FIGS. 3 and 4). […]

human hepcidin-25 [11] = molecular target: T1, human hepcidin-25; test: immunoprecipitation from human serum on plate-coated antibody, acid elution, MALDI-TOF mass spectrometry (linear mode)
Source text: FIG. 3 depicts a MALDI-TOF mass spectrum of the forms of human hepcidin immunoprecipitated from human sera with the anti-hepcidin-25 selective Mab 5E8. Signal 1 has a mass which is consistent with the expected mass of intact human hepcidin-25 (2790 Da). […] The mass spectrum was generated on a MALDI-TOF mass spectrometer utilizing a positive ion, linear mode method with a-cyano-4-hydroxycinnamic acid (peptide matrix) as sample matrix essentially as described in Example 6 below.
as §2, with “TBST.” for “TBST. Captured hepcidin polypeptides are eluted by adding 40 μL/well of 0.1% formic acid for 5 minutes at room temperature.”
as §5

human hepcidin-25 [12] = molecular target: T1, human hepcidin-25; test: SPR
human hepcidin-22 [13] = molecular target: T3, human hepcidin-22; test: SPR, 25 C
mouse hepcidin-25 [14] = molecular target: T4, mouse hepcidin-25; test: SPR, 25 C
rat hepcidin-25 [15] = molecular target: T5, rat hepcidin-25; test: SPR, 25 C
human hepcidin-20 [16] = molecular target: T2, human hepcidin-20; test: SPR, 25 C, Mab captured
human hepcidin-25 [17] = molecular target: T1, human hepcidin-25; test: SPR, Mab captured by anti-mouse IgG1 Fc
Experimental: Briefly, on a Biacore® T100, goat anti-mouse IgG1 Fc polyclonal antibody was immobilized onto flow cell 1 to 4 of CMS chip at 5000-15000 response units (Ru). Mab 5E8 was captured on flow cell 2, Mab 4C11 was captured on flow cell 3, and Mab 3A9 was captured on flow cell 4. Flow cell 1 was used as a reference flow cell. All flow cells were then injected with human hepcidin-25.

B1: Anti-hepcidin Mab 3.23 (antibody, human IgG4 S228P, kappa, V domains shown)
VH: QVQLVQSGAEVKKPGSSVKVSCKASGYTFLIYPISWVRQAPGQGLEWMGNFHPYLGVTNYVEKFKGRVTITADKSTSTAYMELSSLRSEDTAVYYCARGGTGSFDYWGQGTTVTVSS
VL: DIQMTQSPSSLSASVGDRVTITCSASSRVSSTYLFWYQQKPGKAPKLLIYRTSPLASGVPSRFSGSGSGTDFTLTISSLQPEDFATYYCQQWSGYPFVFGGGTKVEIKR
binding result (human hepcidin-25 [1]): binds | binding result (human hepcidin-20 [2]): binds

B2: Anti-hepcidin Mab 3.12 (antibody, human IgG4 S228P, kappa, V domains shown)
VH: QVQLVQSGAEVKKPGSSVKVSCKASGYTFLIYPISWVRQAPGQGLEWMGNFHPYLGVTNYLEKFKGRVTITADKSTSTAYMELSSLRSEDTAVYYCARGGTGSFDYWGQGTTVTVSS
VL: DIQMTQSPSSLSASVGDRVTITCSASSRVSSTYLFWYQQKPGKAPKLLIYRTSTLTSGVPSRFSGSGSGTDFTLTISSLQPEDFATYYCQQWSGYPFVFGGGTKVEIKR
binding result (human hepcidin-25 [3]): binds

B3: mouse monoclonal antibody OH4 (antibody, mouse IgG1, kappa, V domains shown)
VH: EVKLVESGGGLVKPGGSLKISCAASGFAFSSYDMSWVRQTPEKRLEWVATIISGGTYTYYPDSVKGRFTISRDNARNTLNLQMSSLRAEDTALYYCADDGYIHWGQGTLVTVSA
VL: DIVMTQIPLTLSVTIGQPASISCKSSQSLLYPNGKTYLTWLLQRPGQSPKRLIYLVSKLDPGVPDRFTGSGSGADFTLKISRVEAEDLGIYYCIQGSHFPWTFGGGTKLELKR
notes: also called Mab OH4
Kd (human hepcidin-25 [4]): ~1.2 nM | binding result (human hepcidin-20 [5]): no binding (tested: 10 ug/L) | binding result (human hepcidin-22 [6]): no binding (tested: 10 ug/L)

B4: mouse monoclonal antibody OB3 (antibody, mouse IgG1, kappa, V domains shown)
VH: EVKLVESGGGLVKPGGSLKISCAASGFAFSSYDMSWVRQTPEKRLEWVATIISGGTYTYYPDSVKGRFTISRDNARNTLNLQMSSLRAEDTALYYCADDGYIHWGQGTLVTVSA
VL: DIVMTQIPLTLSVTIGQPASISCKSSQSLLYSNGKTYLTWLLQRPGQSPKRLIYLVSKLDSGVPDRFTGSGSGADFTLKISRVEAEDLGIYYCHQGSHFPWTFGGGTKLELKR
binding result (human hepcidin-25 [7]): binds

B5: mouse monoclonal antibody OB1 (antibody, mouse IgG1, kappa, V domains shown)
VH: EVKLVESGGGLVKPGGSLKISCAASGFAFSSYDMSWVRQTPEKRLEWVATIISGGTYTYYPDSVKGRFTISRDNARNTLNLQMSSLRAEDTALYYCADDGYIHWGQGTLVTVSA
VL: DIVMTQIPLTLSVTIGQPASISCKSSQSLLYRNGKTYLTWLLQRPGQSPKRLIYLVSKLDPGVPDRFTGSGSGADFTLKISRVEAEDLGIYYCHQGSHFPWTFGGGTKLELKR
binding result (human hepcidin-25 [7]): binds

B6: mouse monoclonal antibody OE1 (antibody, mouse IgG1, kappa, V domains shown)
VH: EVKLVESGGGLVKPGGSLKISCAASGFAFSSYDMSWVRQTPEKRLEWVATIISGGTYTYYPDSVKGRFTISRDNARNTLNLQMSSLRAEDTALYYCADDGYIHWGQGTLVTVSA
VL: DIVMTQIPLTLSVTIGQPASISCKSSQSLLYPNGKTYLTWLLQRPGQSPKRLIYLVSKLDPGVPDRFTGSGSGADFTLKISRVEAEDLGIYYCFQGSHFPWVFGGGTKLELKR
notes: also called 0E1
binding result (human hepcidin-25 [7]): binds

B7: mouse monoclonal antibody 5E8 (antibody, mouse IgG1, kappa, V domains shown)
VH: EVKLVESGGGLVKPGGSLKISCAASGFAFSSYDMSWVRQTPEKRLEWVATIISGGTYTYYPDSVKGRFTISRDNARNTLNLQMSSLRAEDTALYYCADDGYIHWGQGTLVTVSA
VL: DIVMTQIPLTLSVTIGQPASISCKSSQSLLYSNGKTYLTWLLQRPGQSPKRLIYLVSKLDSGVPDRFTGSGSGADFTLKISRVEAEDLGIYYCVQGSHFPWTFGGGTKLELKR
notes: also called Mab 5E8
binding result (mouse hepcidin-25 [8]): no binding | binding result (rat hepcidin-25 [9]): no binding | binding result (human hepcidin-20 [10]): no binding | binding result (human hepcidin-25 [11]): binds

B8: mouse monoclonal antibody 3A9 (antibody, mouse IgG1, kappa, V domains shown)
VH: EVKLVESGPGILQPSQTLSLTCSFSGFSLNSYGFGIGWIRQPSGKGLEWLTHIWWNGNKYYNTTLKSRLTISKDTSNNQVFLKIASLDTADTATYYCALIHYYGNSYGFAYWGQGTLVTVSA
VL: DIQMNQSPALMSASPGEKVTMTCSASSSVSSMYWYQQKPRSSPKPWIYLTSNLASGVPPRFSGSGSGTSYSLTISNMEAEDAATYYCQQWSSYPPTFGGGTKLEIKR
notes: also called Mab 3A9
binding result (human hepcidin-25 [12]): binds

B9: mouse monoclonal antibody 4C11 (antibody, mouse IgG1, kappa, V domains shown)
VH: QVQLKQSGPGILQPSQTLSLTCSFSGFSLSTYGIGVGWIRQPAGKGLEWLAHIWWNDNKSYNTALKSRLTISKDTSNNQVFLKIASVDTTHTATYYCVVIGYYGSTSGFAYWGQGTLVTVSA
VL: QILLTQSPALMSASPGEKVTMTCSASSSVSYMYWYQQKPRSSPKPWIYLTSNLASGVPARFSGSGSGTSYSLTISSMEAEDAATYYCQQWSSNPPTFGGGTKLEIKR
notes: also called Mab 4C11
Kd (human hepcidin-22 [13]): ~209 nM | binding result (mouse hepcidin-25 [14]): binds | binding result (rat hepcidin-25 [15]): binds | binding result (human hepcidin-20 [16]): no binding | binding result (human hepcidin-25 [17]): binds
